Measured values as given in patent publication US20200292534A1.
Numbering of substitutions follows the chain as printed.

B1: NLpep104 (peptide)
chain: VEGYRLFEKIS
B2: NLpep79 (peptide)
chain: NVTGYRLFKKISN
B3: array2.39 (peptide)
peptide: VTGYRLFQKEL
modifications: not checked
B4: array2.40 (peptide)
peptide: VTGYRLFQQIL
modifications: not checked
B5: NLpep128 (peptide)
chain: VTGYRLFEKIL
B6: NLpep80 (peptide)
peptide: VSGWRLFKKISN
modifications: not checked
B7: array2.51 (peptide)
peptide: VTGYRLFEQEL
modifications: not checked
B8: NLpep78 (peptide)
chain: NVSGWRLFKKISN
B9: NLpep99 (peptide)
chain: VTGYRLFEKIS
B10: array2.47 (peptide)
peptide: VTGYRLFEKAL
modifications: not checked
B11: array2.30 (peptide)
peptide: VTGYRLFKKEL
modifications: not checked
B12: array2.41 (peptide)
peptide: VTGYRLFQQAL
modifications: not checked
B13: array2.43 (peptide)
peptide: VTGYRLFQEIL
modifications: not checked
B14: Ala-162 (peptide)
peptide: VSGWALFKKIS
modifications: not checked
B15: array2.45 (peptide)
peptide: VTGYRLFQEEL
modifications: not checked
B16: array2.32 (peptide)
peptide: VTGYRLFKQAL
modifications: not checked
B17: array2.50 (peptide)
peptide: VTGYRLFEQAL
modifications: not checked
B18: NLpep82 (peptide)
chain: GWRLFKKISN
B19: array2.34 (peptide)
peptide: VTGYRLFKEIL
modifications: not checked
B20: NLpep86 (peptide)
peptide: VSGWRLFKKIS
modifications: not checked
B21: array2.33 (peptide)
peptide: VTGYRLFKQEL
modifications: not checked
B22: Gln-162 (peptide)
peptide: VSGWQLFKKIS
modifications: not checked
B23: NLpep81 (peptide)
chain: SGWRLFKKISN
B24: array2.36 (peptide)
peptide: VTGYRLFKEEL
modifications: not checked
B25: array2.3 (peptide)
peptide: VTGYRLFKKES
modifications: not checked
B26: array2.54 (peptide)
peptide: VTGYRLFEEEL
modifications: not checked
B27: array2.44 (peptide)
peptide: VTGYRLFQEAL
modifications: not checked
B28: array2.35 (peptide)
peptide: VTGYRLFKEAL
modifications: not checked
B29: array2.49 (peptide)
peptide: VTGYRLFEQIL
modifications: not checked
B30: array2.46 (peptide)
peptide: VTGYRLFEKIL
modifications: not checked
B31: array2.4 (peptide)
peptide: VTGYRLFKQIS
modifications: not checked
B32: array2.37 (peptide)
peptide: VTGYRLFQKIL
modifications: not checked
B33: array2.31 (peptide)
peptide: VTGYRLFKQIL
modifications: not checked
B34: array2.28 (peptide)
peptide: VTGYRLFKKIL
modifications: not checked
B35: NLpep101 (peptide)
chain: VTGYRLFEKES
B36: array2.42 (peptide)
peptide: VTGYRLFQQEL
modifications: not checked
B37: array2.29 (peptide)
peptide: VTGYRLFKKAL
modifications: not checked
B38: array2.48 (peptide)
peptide: VTGYRLFEKEL
modifications: not checked
B39: array2.38 (peptide)
peptide: VTGYRLFQKAL
modifications: not checked

Assays:
NLpoly11S [1] = target: T1, NLpoly11S; test: luminescence complementation titration, one-site specific binding; details: chains peptide; modification not given
T1 chain: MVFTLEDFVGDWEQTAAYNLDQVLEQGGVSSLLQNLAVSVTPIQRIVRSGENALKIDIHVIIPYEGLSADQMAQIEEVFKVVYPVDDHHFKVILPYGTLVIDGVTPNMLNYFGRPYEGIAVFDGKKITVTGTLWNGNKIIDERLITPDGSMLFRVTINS

NLpoly11S [2] = target: T1, NLpoly11S; test: as above; details: chains peptide; modification not given
NLpoly11S [3] = target: T1, NLpoly11S; test: luminescence complementation titration, one-site specific binding fit
NLpoly11S [4] = target: T1, NLpoly11S; test: luminescence complementation titration (E. coli lysate NLpoly, synthetic NLpep), one site-specific binding fit
NLpoly 5P [5] = target: T2, NLpoly 5P; test: luminescence complementation; HeLa lysate; details: chains peptide; modification not given
T2 chain: T1 chain with L33F, R48L, E77K, V78I, P95H, L109I, S159P

NLpoly11S [6] = target: T1, NLpoly11S; test: luminescence complementation titration, one-site specific binding; details: chains peptide; modification not given
[7] = substrate: CP Nluc; test: cell-based or functional assay
NLpoly 5P [8] = target: T2, NLpoly 5P; test: luminescence complementation; details: chains peptide; modification not given
ATG = target: T3, ATG; test: luminescence complementation; details: chains peptide; modification not given
T3 chain: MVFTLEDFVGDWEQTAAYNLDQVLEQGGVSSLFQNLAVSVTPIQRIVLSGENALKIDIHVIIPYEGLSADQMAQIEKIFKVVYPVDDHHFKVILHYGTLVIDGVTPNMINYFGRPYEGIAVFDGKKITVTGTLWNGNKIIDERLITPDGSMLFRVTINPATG

VTG = target: T4, VTG; test: luminescence complementation; details: chains peptide; modification not given
T4 chain: T3 chain with A160V

GTA = target: T5, GTA; test: luminescence complementation; details: chains peptide; modification not given
T5 chain: T3 chain with A160G, G162A

AA = test: luminescence complementation; details: chains peptide; modification not given
VA = test: luminescence complementation; details: chains peptide; modification not given
VT = test: luminescence complementation; details: chains peptide; modification not given

Binder	Bmax (NLpoly11S [3])	Kd (NLpoly11S [3])	further results
B1	–	–	Kd (NLpoly11S [1]): 1740 nM
B2	–	–	Kd (NLpoly11S [2]): 13.1 nM; Kd (NLpoly11S [1]): 20.3 nM
B3	33100	2480 nM	–
B4	66300	122000 nM	–
B5	–	–	Kd (NLpoly11S [1]): 237 nM
B6	–	–	Kd (NLpoly11S [4]): < 1 nM; fold improved affinity over NLpolyWT:NLpepWT (NLpoly11S [4]): 10000 fold; Kd (NLpoly 5P [5]): 1 nM
B7	46200	85000 nM	–
B8	–	–	Kd (NLpoly11S [1]): 2.39 nM; Kd (NLpoly11S [6]): 9.56 nM
B9	–	–	Kd (NLpoly11S [1]): 266 nM
B10	34500	1810 nM	–
B11	51100	671 nM	–
B12	3470	3970 nM	–
B13	9410	17200 nM	–
B14	–	–	inhibition of the luminescence generated by CP Nluc [7]: > 2 logs
B15	14300	35400 nM	–
B16	34900	3560 nM	–
B17	17100	40400 nM	–
B18	–	–	Kd (NLpoly 5P [8]): 215 nM; Kd (ATG): 230 nM; Kd (VTG): 276 nM; Kd (GTA): 254 nM
B19	21900	4400 nM	–
B20	–	–	Kd (NLpoly11S [4]): < 1 nM; fold improved affinity over NLpolyWT:NLpepWT (NLpoly11S [4]): 10000 fold

Binder	Bmax (NLpoly11S [3])	Kd (NLpoly11S [3])	further results
B21	8550	1950 nM	–
B22	–	–	inhibition of the luminescence generated by CP Nluc [7]: > 1 log
B23	–	–	Kd (AA): 115 nM; Kd (NLpoly 5P [8]): 110 nM; Kd (VA): 132 nM; Kd (VT): 137 nM
B24	1720	7780 nM	–
B25	56000	773 nM	–
B26	251000	68300 nM	–
B27	4230	16000 nM	–
B28	5550	5150 nM	–
B29	99200	124000 nM	–
B30	219000	1920 nM	–
B31	104000	746 nM	–
B32	127000	362 nM	–
B33	115000	2990 nM	–
B34	141000	76.6 nM	–
B35	–	–	Kd (NLpoly11S [1]): 3120 nM
B36	14200	19000 nM	–
B37	98600	276 nM	–
B38	10900	2440 nM	–
B39	72800	975 nM	–
